Assay results: patent publication US20150126713A1

Assays:
[1] = molecular target: human IL-23R-mouse Fc fusion protein (human; mouse) (UniProt Q5VWK5); assay: antigen ELISA, human IL-23R-mouse Fc immobilized, HRP anti-human IgG, chemiluminescence
[2] = molecular target: human IL-23R on Kit-225 cells (human) (UniProt Q5VWK5); assay: cell-based or functional assay
[3] = molecular target: monkey IL-23R-mouse Fc fusion protein (monkey; mouse); assay: antigen ELISA, monkey IL-23R-mouse Fc immobilized, HRP anti-human IgG, chemiluminescence

human IL-23R-mouse Fc fusion protein (human; mouse), sequence (Q5VWK5 24-353 L310P limits assumed): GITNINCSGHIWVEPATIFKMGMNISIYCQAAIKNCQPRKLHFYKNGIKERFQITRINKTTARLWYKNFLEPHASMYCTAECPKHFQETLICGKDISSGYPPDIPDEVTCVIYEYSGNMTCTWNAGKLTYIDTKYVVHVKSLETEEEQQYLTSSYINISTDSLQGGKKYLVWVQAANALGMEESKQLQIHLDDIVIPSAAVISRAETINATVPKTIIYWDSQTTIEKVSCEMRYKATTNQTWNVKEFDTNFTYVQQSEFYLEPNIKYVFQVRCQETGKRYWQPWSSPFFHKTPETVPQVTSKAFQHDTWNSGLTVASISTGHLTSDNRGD
human IL-23R on Kit-225 cells (human), sequence (Q5VWK5 24-629 L310P limits assumed): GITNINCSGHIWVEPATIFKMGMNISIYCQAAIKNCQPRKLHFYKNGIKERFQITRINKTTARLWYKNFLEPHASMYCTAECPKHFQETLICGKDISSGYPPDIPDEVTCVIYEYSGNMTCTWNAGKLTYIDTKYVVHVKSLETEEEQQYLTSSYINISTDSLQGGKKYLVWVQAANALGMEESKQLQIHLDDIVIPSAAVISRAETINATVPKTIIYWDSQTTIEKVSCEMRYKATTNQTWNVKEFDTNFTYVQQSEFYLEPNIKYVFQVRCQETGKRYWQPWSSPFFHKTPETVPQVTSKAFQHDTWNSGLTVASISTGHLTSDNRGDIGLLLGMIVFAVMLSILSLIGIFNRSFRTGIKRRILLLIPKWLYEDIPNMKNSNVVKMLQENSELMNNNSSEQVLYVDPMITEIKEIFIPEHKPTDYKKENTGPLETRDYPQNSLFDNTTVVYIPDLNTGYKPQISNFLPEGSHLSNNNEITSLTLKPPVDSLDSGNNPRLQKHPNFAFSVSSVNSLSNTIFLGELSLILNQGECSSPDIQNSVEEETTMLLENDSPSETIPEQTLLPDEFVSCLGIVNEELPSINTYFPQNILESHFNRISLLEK

B1: hum20D7 (antibody, from another filing, V domains shown)
VH: QVQLVQSGAEVKKPGASVKVSCKASGYTFTNYAMNWVRQAPGQGLEWMGWINTYTGEPTYSDDFKGRVTFTLDTSTSTAYMELRSLRSDDTAVYYCARGGGYDEDYFDYWGQGTLVTVSS
VL: DIVMTQSPLSLPVTPGEPASISCKSSQSLFNTINQKTYLAWYLQKPGQSPQLLIYFASTRESGVPDRFSGSGSGTDFTLKISRVEAEDVGVYYCQQHYDTPWTFGQGTKVEIKR
EC50 [1]: 0.0452 mg/L
Human IL-23-inducible Kit-225 cell proliferation inhibitory activity, IC50 [2]: 0.0276 mg/L
EC50 [3]: > 10 mg/L
